One data set addresses T1, REF6 ZnF1-4 (Arabidopsis thaliana, UniProt Q9STM3 1239-1360).
T1 sequence: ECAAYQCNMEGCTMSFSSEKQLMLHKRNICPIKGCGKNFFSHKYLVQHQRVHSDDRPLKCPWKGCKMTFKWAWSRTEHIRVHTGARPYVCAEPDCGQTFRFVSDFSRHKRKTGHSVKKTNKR
The data set can be described thus: ITC; 20 uM ZnCl2; ITC: 20 mM Tris-HCl pH 7.5, 150 mM NaCl, 20 uM ZnCl2, 25 C; EMSA: 25 mM Tris-HCl pH 8.0, 100 mM NaCl, 2.5 mM MgCl2, 0.1% CA-630, 10% glycerol, 1 uM ZnSO4, 1 mM. The following applies: protein: recombinant; tags: GST removed by PreScission; blunt.

The target of another data set is T2, GST-REF6C (ZnF1-4) (Arabidopsis thaliana, UniProt Q9STM3 1239-1360).
T2 sequence: T1 sequence
Nature of the data set: EMSA; 1 uM ZnSO4; ITC: 20 mM Tris-HCl pH 7.5, 150 mM NaCl, 20 uM ZnCl2, 25 C; EMSA: 25 mM Tris-HCl pH 8.0, 100 mM NaCl, 2.5 mM MgCl2, 0.1% CA-630, 10% glycerol, 1 uM ZnSO4, 1 mM. Conditions: protein: recombinant; tags: N-terminal GST (pGEX-6P-1); label: 5'-32P; blunt. For orientation: Mobility shift assays separate free from complexed probe on a gel.

Usually Kd stands for the equilibrium constant for the complex coming apart.

B1: NAC004P 12-mer (dsDNA)
DNA 1: TTCTCTGTTTTG
DNA 2: CAAAACAGAGAA
Turning to B1, the Kd in the data set with REF6 ZnF1-4 came to 73.5 ± 7 nM.

B2: NAC004P_5mC1 (dsDNA)
DNA 1: TTCTCTGTTTTG
DNA 2: CAAAACAGAGAA
modifications: 5mC at top strand position 3
For B2, the Kd with REF6 ZnF1-4 was 65.7 ± 4.9 nM.

B3: NAC004 50-bp probe (dsDNA)
DNA 1: GGGAGAATCTCAAACTTTCTCTGTTTTGTCTTTAGAAACTTTGAAATATC
DNA 2: GATATTTCAAAGTTTCTAAAGACAAAACAGAGAAAGTTTGAGATTCTCCC
As to B3, in the data set with GST-REF6C (ZnF1-4), the binding result is “binds”.

B4: NAC004P_5mC3 (dsDNA)
DNA 1: TTCTCTGTTTTG
DNA 2: CAAAACAGAGAA
modifications: 5mC at top strand position 5
As for B4, the dissociation constant Kd in the data set with REF6 ZnF1-4 amounted to 110 ± 3.8 nM.

Source of the values: paper PMC6497721, “DNA methylation repels targeting of Arabidopsis REF6”.
